In paper PMC4489720:

Tests used:
[1] = target: His-tagged recombinant full-length HB3VAR06 (FV6) (P. falciparum HB3); test: SEC; Superdex 200 10/30 HR, 50 mM Tris-HCl, 150 mM NaCl, pH 7.4; α2M (150 μg) alone and with molar ratios of FV6, incubated on ice 15 min; 0.5 mL/min, A280
[2] = target: His-tagged recombinant full-length HB3VAR06 (FV6) (P. falciparum HB3); test: ELISA; MaxiSorp plates coated with recombinant PfEMP1 constructs (18 nM, overnight, 4°C); blocked in TSM buffer with 1% Ig-free BSA; α2M or α2M-MA (10 nM; titrated in Fig 2A); detected with anti-α2M antibodies

B1: α2-macroglobulin (α2M), native (natural protein)
chain: SVSGKPQYMVLVPSLLHTETTEKGCVLLSYLNETVTVSASLESVRGNRSLFTDLEAENDVLHCVAFAVPKSSSNEEVMFLTVQVKGPTQEFKKRTTVMVKNEDSLVFVQTDKSIYKPGQTVKFRVVSMDENFHPLNELIPLVYIQDPKGNRIAQWQSFQLEGGLKQFSFPLSSEPFQGSYKVVVQKKSGGRTEHPFTVEEFVLPKFEVQVTVPKIITILEEEMNVSVCGLYTYGKPVPGHVTVSICRKYSDASDCHGEDSQAFCEKFSGQLNSHGCFYQQVKTKVFQLKRKEYEMKLHTEAQIQEEGTVVELTGRQSSEITRTITKLSFVKVDSHFRQGIPFFGQVRLVDGKGVPIPNKVIFIRGNEANYYSNATTDEHGLVQFSINTTNVMGTSLTVRVNYKDRSPCYGYQWVSEEHEEAHHTAYLVFSPSKSFVHLEPMSHELPCGHTQTVQAHYILNGGTLLGLKKLSFYYLIMAKGGIVRTGTHGLLVKQEDMKGHFSISIPVKSDIAPVARLLIYAVLPTGDVIGDSAKYDVENCLANKVDLSFSPSQSLPASHAHLRVTAAPQSVCALRAVDQSVLLMKPDAELSASSVYNLLPEKDLTGFPGPLNDQDNEDCINRHNVYINGITYTPVSSTNEKDMYSFLEDMGLKAFTNSKIRKPKMCPQLQQYEMHGPEGLRVGFYESDVMGRGHARLVHVEEPHTETVRKYFPETWIWDLVVVNSAGVAEVGVTVPDTITEWKAGAFCLSEDAGLGISSTASLRAFQPFFVELTMPYSVIRGEAFTLKATVLNYLPKCIRVSVQLEASPAFLAVPVEKEQAPHCICANGRQTVSWAVTPKSLGNVNFTVSAEALESQELCGTEVPSVPEHGRKDTVIKPLLVEPEGLEKETTFNSLLCPSGGEVSEELSLKLPPNVVEESARASVSVLGDILGSAMQNTQNLLQMPYGCGEQNMVLFAPNIYVLDYLNETQQLTPEIKSKAIGYLNTGYQRQLNYKHYDGSYSTFGERYGRNQGNTWLTAFVLKTFAQARAYIFIDEAHITQALIWLSQRQKDNGCFRSSGSLLNNAIKGGVEDEVTLSAYITIALLEIPLTVTHPVVRNALFCLESAWKTAQEGDHGSHVYTKALLAYAFALAGNQDKRKEVLKSLNEEAVKKDNSVHWERPQKPKAPVGHFYEPQAPSAEVEMTSYVLLAYLTAQPAPTSEDLTSATNIVKWITKQQNAQGGFSSTQDTVVALHALSKYGAATFTRTGKAAQVTIQSSGTFSSKFQVDNNNRLLLQQVSLPELPGEYSMKVTGEGCVYLQTSLKYNILPEKEEFPFALGVQTLPQTCDEPKAHTSFQISLSVSYTGSRSASNMAIVDVKMVSGFIPLKPTVKMLERSNHVSRTEVSSNHVLIYLDKVSNQTLSLFFTVLQDVPVRDLKPAIVKVYDYYETDEFAIAEYNAPCSKDLGNA
stoichiometry N [1]: > 4 FV6 per α2M
amount bound relative to α2M-MA (fold) [2]: 4 fold

B2: methylamine-activated α2-macroglobulin (α2M-MA) (natural protein)
chain: SVSGKPQYMVLVPSLLHTETTEKGCVLLSYLNETVTVSASLESVRGNRSLFTDLEAENDVLHCVAFAVPKSSSNEEVMFLTVQVKGPTQEFKKRTTVMVKNEDSLVFVQTDKSIYKPGQTVKFRVVSMDENFHPLNELIPLVYIQDPKGNRIAQWQSFQLEGGLKQFSFPLSSEPFQGSYKVVVQKKSGGRTEHPFTVEEFVLPKFEVQVTVPKIITILEEEMNVSVCGLYTYGKPVPGHVTVSICRKYSDASDCHGEDSQAFCEKFSGQLNSHGCFYQQVKTKVFQLKRKEYEMKLHTEAQIQEEGTVVELTGRQSSEITRTITKLSFVKVDSHFRQGIPFFGQVRLVDGKGVPIPNKVIFIRGNEANYYSNATTDEHGLVQFSINTTNVMGTSLTVRVNYKDRSPCYGYQWVSEEHEEAHHTAYLVFSPSKSFVHLEPMSHELPCGHTQTVQAHYILNGGTLLGLKKLSFYYLIMAKGGIVRTGTHGLLVKQEDMKGHFSISIPVKSDIAPVARLLIYAVLPTGDVIGDSAKYDVENCLANKVDLSFSPSQSLPASHAHLRVTAAPQSVCALRAVDQSVLLMKPDAELSASSVYNLLPEKDLTGFPGPLNDQDNEDCINRHNVYINGITYTPVSSTNEKDMYSFLEDMGLKAFTNSKIRKPKMCPQLQQYEMHGPEGLRVGFYESDVMGRGHARLVHVEEPHTETVRKYFPETWIWDLVVVNSAGVAEVGVTVPDTITEWKAGAFCLSEDAGLGISSTASLRAFQPFFVELTMPYSVIRGEAFTLKATVLNYLPKCIRVSVQLEASPAFLAVPVEKEQAPHCICANGRQTVSWAVTPKSLGNVNFTVSAEALESQELCGTEVPSVPEHGRKDTVIKPLLVEPEGLEKETTFNSLLCPSGGEVSEELSLKLPPNVVEESARASVSVLGDILGSAMQNTQNLLQMPYGCGEQNMVLFAPNIYVLDYLNETQQLTPEIKSKAIGYLNTGYQRQLNYKHYDGSYSTFGERYGRNQGNTWLTAFVLKTFAQARAYIFIDEAHITQALIWLSQRQKDNGCFRSSGSLLNNAIKGGVEDEVTLSAYITIALLEIPLTVTHPVVRNALFCLESAWKTAQEGDHGSHVYTKALLAYAFALAGNQDKRKEVLKSLNEEAVKKDNSVHWERPQKPKAPVGHFYEPQAPSAEVEMTSYVLLAYLTAQPAPTSEDLTSATNIVKWITKQQNAQGGFSSTQDTVVALHALSKYGAATFTRTGKAAQVTIQSSGTFSSKFQVDNNNRLLLQQVSLPELPGEYSMKVTGEGCVYLQTSLKYNILPEKEEFPFALGVQTLPQTCDEPKAHTSFQISLSVSYTGSRSASNMAIVDVKMVSGFIPLKPTVKMLERSNHVSRTEVSSNHVLIYLDKVSNQTLSLFFTVLQDVPVRDLKPAIVKVYDYYETDEFAIAEYNAPCSKDLGNA
modifications: internal thioester cleaved by methylamine (MA-activated)
stoichiometry N (FV6 per α2M-MA) [1]: 1
